Here are results for three molecules from paper PMC6403256, “ABHD5 blunts the sensitivity of colorectal cancer to fluorouracil via promoting autophagic uracil yield” (Nature Communications, 2019).

Conditions in all cases: both partners purified
The target in test [1] is T1, PDIA5 on the HuProt human protein chip (human, UniProt Q14554 22-519).
T1 construct: PDIA5, human, as spotted on the HuProt human protein chip; source: spotted on the HuProt human protein chip
T1 sequence (looked up): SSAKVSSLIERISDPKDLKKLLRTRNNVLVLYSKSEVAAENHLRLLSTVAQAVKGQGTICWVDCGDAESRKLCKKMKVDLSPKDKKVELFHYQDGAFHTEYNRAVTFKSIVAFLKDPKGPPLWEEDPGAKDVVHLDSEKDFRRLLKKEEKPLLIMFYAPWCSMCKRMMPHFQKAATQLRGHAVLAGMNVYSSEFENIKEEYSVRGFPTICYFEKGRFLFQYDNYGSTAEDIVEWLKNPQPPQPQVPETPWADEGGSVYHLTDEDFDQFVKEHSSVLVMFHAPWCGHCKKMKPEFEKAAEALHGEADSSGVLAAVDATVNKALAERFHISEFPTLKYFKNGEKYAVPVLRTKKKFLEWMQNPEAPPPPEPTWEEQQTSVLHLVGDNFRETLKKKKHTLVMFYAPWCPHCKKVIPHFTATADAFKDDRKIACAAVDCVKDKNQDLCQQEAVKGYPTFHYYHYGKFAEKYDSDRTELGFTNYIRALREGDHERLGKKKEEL
Description: peptide or protein array; human ABHD5 recombinant protein used to probe the HuProt human protein chip.

The next test deals with T2, His-PDIA5 (human, UniProt Q14554 22-519).
T2 construct: PDIA5, human, wild type; source: recombinant protein from Wuhan GeneCreate Biological Engineering Co., Ltd
T2 sequence (looked up): T1 sequence (looked up)
Nature of the test: pull-down; competitive binding: 50 ug GST-RNASET2 mixed with 0, 50, 100, 200 ug GST-ABHD5, incubated with 50 ug immobilized His-PDIA5 at 4 C for 4 h; detected by blot.

Test [2] deals with T3, GST-tagged wild type PDIA5 (human, UniProt Q14554 22-519).
T3 construct: PDIA5, human, wild type; also called GST-PDIA5; wild type PDIA5 (W); source: expressed and purified; recombinant protein from Wuhan GeneCreate Biological Engineering Co., Ltd
T3 sequence (looked up): T1 sequence (looked up)
Description: pull-down; Ni-NTA bead pull-down: 50 ug GST, GST-PDIA5 or mutant GST-PDIA5 with 50 ug immobilized His-ABHD5 or His-RNASET2; 20 mM Tris pH 8.0, 100 mM NaCl, 0.2% Triton X-100; 4 C, 4 h; eluates blotted with anti-GST.

B1: human ABHD5 recombinant protein (probe on the HuProt chip) (natural protein, UniProt Q8WTS1 1-349, looked up)
chain: MAAEEEEVDSADTGERSGWLTGWLPTWCPTSISHLKEAEEKMLKCVPCTYKKEPVRISNGNKIWTLKFSHNISNKTPLVLLHGFGGGLGLWALNFGDLCTNRPVYAFDLLGFGRSSRPRFDSDAEEVENQFVESIEEWRCALGLDKMILLGHNLGGFLAAAYSLKYPSRVNHLILVEPWGFPERPDLADQDRPIPVWIRALGAALTPFNPLAGLRIAGPFGLSLVQRLRPDFKRKYSSMFEDDTVTEYIYHCNVQTPSGETAFKNMTIPYGWAKRPMLQRIGKMHPDIPVSVIFGARSCIDGNSGTSIQSLRPHSYVKTIAILGAGHYVYADQPEEFNQKVKEICDTVD
notes: ABHD5, human, recombinant protein used to probe the HuProt human protein chip; The methods list two recombinant ABHD5 proteins: His-ABHD5 (Wuhan GeneCreate) and ABHD5 (Human) recombinant protein H00051099-P01 (Novus)
Consider B1, for which the binding result in test [1] is given as “binds”.

B2: GST-ABHD5 (natural protein, human, UniProt Q8WTS1 1-349, looked up)
chain: B1 chain
notes: ABHD5, human
In the case of B2, the binding result with His-PDIA5 is given as “binds”.

B3: His-tagged full-length ABHD5 (natural protein, human, UniProt Q8WTS1 1-349, looked up)
chain: B1 chain
notes: ABHD5, human, wild type, full length; also called His-ABHD5; source: recombinant protein from Wuhan GeneCreate Biological Engineering Co., Ltd
B3: the binding result in test [2] is reported as “binds”.
